Series [1] concerns the target T1, Ku70/80ΔC (human, UniProt P12956;P13010 1-609;1-548). As to the kind of experiment: fluorescence polarization; reduced (control), 1 mM DTT, 10 mM Mg2+, probably nM; 50 mM Tris-HCl pH 7.8, 10 mM MgCl2, 50 mM NaCl (FP: plus 1 mM DTT, 0.5 ml; EMSA: 20 μl, 500 fmol DNA); oxidation 2 mM diamide 15 min on ice, re-reduction 5 mM DTT 15 min on ice; binding temperature not stated. Particulars: protein: recombinant; tags: His6 on Ku70; N-terminal His6 (pRSET B) also on Ku80ΔC per Methods; copies: 1;1; blunt.

The target in series [2] is T2, Ku70/Ku80 heterodimer, wild type (human, UniProt P12956;P13010 1-609;1-732). The description is as above. The following applies: protein: recombinant; tags: His6 on Ku70; copies: 1;1; blunt.
Series [3] has as its target T2, Ku70/Ku80 heterodimer, wild type. Kind of series: fluorescence polarization; re-reduced: 2 mM diamide then 5 mM DTT, probably nM; 50 mM Tris-HCl pH 7.8, 10 mM MgCl2, 50 mM NaCl (FP: plus 1 mM DTT, 0.5 ml; EMSA: 20 μl, 500 fmol DNA); oxidation 2 mM diamide 15 min on ice, re-reduction 5 mM DTT 15 min on ice; binding temperature not stated. The following applies: protein: recombinant; tags: His6 on Ku70; copies: 1;1; blunt.

Series [4] deals with T1, Ku70/80ΔC. As to the kind of experiment: EMSA; reduced (control), 10 mM Mg2+, probably nM; 50 mM Tris-HCl pH 7.8, 10 mM MgCl2, 50 mM NaCl (FP: plus 1 mM DTT, 0.5 ml; EMSA: 20 μl, 500 fmol DNA); oxidation 2 mM diamide 15 min on ice, re-reduction 5 mM DTT 15 min on ice; binding temperature not stated. The following applies: protein: recombinant; tags: His6 on Ku70; N-terminal His6 (pRSET B) also on Ku80ΔC per Methods; copies: 1;1; label: 32P; blunt.

Series [5] addresses Ku70/Ku80 C493S (human, UniProt P12956;P13010 1-609;1-732, C493S). Kind of series: EMSA; reduced; similar to wild type (data not shown); 50 mM Tris-HCl pH 7.8, 10 mM MgCl2, 50 mM NaCl (FP: plus 1 mM DTT, 0.5 ml; EMSA: 20 μl, 500 fmol DNA); oxidation 2 mM diamide 15 min on ice, re-reduction 5 mM DTT 15 min on ice; binding temperature not stated. The following applies: protein: recombinant; tags: His6 on Ku70; copies: 1;1; label: 32P; blunt.

In series [6] the target is Ku70/Ku80 C493A (human, UniProt P12956;P13010 1-609;1-732, C493A). As to the kind of experiment: EMSA; reduced; near wild type; 50 mM Tris-HCl pH 7.8, 10 mM MgCl2, 50 mM NaCl (FP: plus 1 mM DTT, 0.5 ml; EMSA: 20 μl, 500 fmol DNA); oxidation 2 mM diamide 15 min on ice, re-reduction 5 mM DTT 15 min on ice; binding temperature not stated. Particulars: protein: recombinant; tags: His6 on Ku70; copies: 1;1; label: 32P; blunt.

Series [7] addresses T2, Ku70/Ku80 heterodimer, wild type. As to the kind of experiment: EMSA; reduced (control), 10 mM Mg2+, titration was 0-150 nM so probably nM; 50 mM Tris-HCl pH 7.8, 10 mM MgCl2, 50 mM NaCl (FP: plus 1 mM DTT, 0.5 ml; EMSA: 20 μl, 500 fmol DNA); oxidation 2 mM diamide 15 min on ice, re-reduction 5 mM DTT 15 min on ice; binding temperature not stated. Particulars: protein: recombinant; tags: His6 on Ku70; copies: 1;1; label: 32P; blunt.

T2 sequence (P12956 whole entry, chain 1 of 2): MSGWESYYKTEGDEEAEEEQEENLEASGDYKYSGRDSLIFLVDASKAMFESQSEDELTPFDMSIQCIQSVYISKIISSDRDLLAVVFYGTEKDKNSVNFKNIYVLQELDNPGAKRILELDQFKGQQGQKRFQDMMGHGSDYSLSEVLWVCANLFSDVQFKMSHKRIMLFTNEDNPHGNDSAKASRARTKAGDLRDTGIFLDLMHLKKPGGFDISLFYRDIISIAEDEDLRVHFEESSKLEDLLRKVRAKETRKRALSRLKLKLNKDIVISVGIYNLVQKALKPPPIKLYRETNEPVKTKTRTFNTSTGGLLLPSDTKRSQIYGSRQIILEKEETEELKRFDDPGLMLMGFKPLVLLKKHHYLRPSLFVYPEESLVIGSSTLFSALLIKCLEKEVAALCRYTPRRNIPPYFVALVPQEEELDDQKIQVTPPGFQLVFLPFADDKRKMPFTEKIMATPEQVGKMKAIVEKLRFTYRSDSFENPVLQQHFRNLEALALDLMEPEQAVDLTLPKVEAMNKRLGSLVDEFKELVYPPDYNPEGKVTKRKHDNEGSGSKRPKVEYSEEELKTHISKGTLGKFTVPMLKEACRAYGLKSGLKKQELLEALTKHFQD
T2 sequence (P13010 whole entry, chain 2 of 2): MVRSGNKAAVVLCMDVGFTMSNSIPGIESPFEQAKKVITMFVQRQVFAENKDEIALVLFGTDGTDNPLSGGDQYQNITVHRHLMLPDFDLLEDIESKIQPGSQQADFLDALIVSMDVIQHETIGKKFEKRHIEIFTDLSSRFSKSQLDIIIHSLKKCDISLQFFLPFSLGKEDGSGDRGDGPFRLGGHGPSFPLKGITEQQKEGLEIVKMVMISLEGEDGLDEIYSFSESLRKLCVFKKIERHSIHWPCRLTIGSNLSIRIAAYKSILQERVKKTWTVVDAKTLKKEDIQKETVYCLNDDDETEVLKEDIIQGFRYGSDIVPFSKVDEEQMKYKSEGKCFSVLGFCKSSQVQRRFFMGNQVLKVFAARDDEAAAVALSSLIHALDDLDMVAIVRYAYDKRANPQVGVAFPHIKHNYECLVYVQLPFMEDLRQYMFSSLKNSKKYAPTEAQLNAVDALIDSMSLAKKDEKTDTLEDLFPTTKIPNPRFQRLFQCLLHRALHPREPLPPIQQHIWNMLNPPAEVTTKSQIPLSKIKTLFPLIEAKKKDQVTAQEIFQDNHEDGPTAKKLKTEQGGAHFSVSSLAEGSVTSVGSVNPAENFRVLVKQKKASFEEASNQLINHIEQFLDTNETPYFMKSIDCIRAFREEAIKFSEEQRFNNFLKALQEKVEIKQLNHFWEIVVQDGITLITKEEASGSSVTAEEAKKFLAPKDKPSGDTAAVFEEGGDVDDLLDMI
T1 sequence (P12956 whole entry, stated change not applied, chain 1 of 2): as the sequence (P12956 whole entry, chain 1 of 2) above
T1 sequence (P13010 1-548, stated change not applied, chain 2 of 2): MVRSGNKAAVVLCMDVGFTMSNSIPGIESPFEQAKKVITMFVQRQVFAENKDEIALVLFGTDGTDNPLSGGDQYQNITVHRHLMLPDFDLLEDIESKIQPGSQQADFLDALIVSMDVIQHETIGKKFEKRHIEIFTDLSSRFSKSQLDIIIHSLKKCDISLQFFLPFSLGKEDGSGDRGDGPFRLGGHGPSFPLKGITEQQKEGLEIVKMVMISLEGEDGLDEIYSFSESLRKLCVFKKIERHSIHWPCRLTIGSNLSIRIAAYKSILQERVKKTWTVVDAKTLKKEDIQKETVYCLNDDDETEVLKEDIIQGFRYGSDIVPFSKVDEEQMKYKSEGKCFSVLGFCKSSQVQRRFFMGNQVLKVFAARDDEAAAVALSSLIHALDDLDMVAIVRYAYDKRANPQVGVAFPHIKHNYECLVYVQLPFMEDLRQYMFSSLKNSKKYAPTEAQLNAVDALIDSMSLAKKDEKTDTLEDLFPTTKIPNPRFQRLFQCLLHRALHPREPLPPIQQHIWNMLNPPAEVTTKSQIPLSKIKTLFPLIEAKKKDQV
Sequence of Ku70/Ku80 C493A (P12956 whole entry, chain 1 of 2): as the sequence (P12956 whole entry, chain 1 of 2) above
Sequence of Ku70/Ku80 C493A (P13010 whole entry C493A, chain 2 of 2): as the sequence (P13010 whole entry, chain 2 of 2) above, with C493A counted along it
Sequence of Ku70/Ku80 C493S (P12956 whole entry, chain 1 of 2): as the sequence (P12956 whole entry, chain 1 of 2) above
Sequence of Ku70/Ku80 C493S (P13010 whole entry C493S, chain 2 of 2): as the sequence (P13010 whole entry, chain 2 of 2) above, with C493S counted along it

B1: 30-bp duplex 30A/30C, fluorescein (polarization) (dsDNA)
DNA 1: CCCCTATCCTTTCCGCGTCCTTACTTCCCC
DNA 2: GGGGAAGTAAGGACGCGGAAAGGATAGGGG
With B1, the Kd stood at 25.7 ± 1.5 nM in series [1], 25.8 ± 2.3 nM in series [2] and 31.4 ± 3 nM in series [3].

B2: 30-bp duplex 30A/30C (EMSA) (dsDNA)
DNA 1: B1 DNA 1
DNA 2: B1 DNA 2
Take B2: the Kd came out at 51 ± 7.7 nM in series [4] and 29.7 ± 2.5 nM in series [7]. Further, the binding result in series [5] and in series [6] was “binds” each time.

Source of the values: paper PMC2741464.
